Test results from US8487074B2, “Modulation of lipid rafts” (Lantmannen AS-Faktor AB, priority 2006, dated 2013).
No end group written: not given here.

How the values were obtained:
[1] = test system: injured skin and cartilage; parameters: species or system rats; settings: rat, in vivo
Procedure: In an experiment it was investigated whether the administration of AF-16 affected the healing process of injured skin and cartilage, using freeze-thaw injury to a rat ear as a model system. […] In addition 1 mg AF-16 was injected intramuscularly just after the implantation of the pump. Thereafter, a freeze-thaw injury was applied by compressing the ear in a standardized manner with the aid of a Pean's forceps, chilled in liquid nitrogen. For comparison, additional rats were treated in the same way in parallel were treated with the vehicle, PBS with 15% ethanol, only and no peptide. Additionally, normal rats, which had not been exposed to any freeze-thaw injury, were used for reference as were non-injured rats having pumps with AF-16 implanted. […] On either side bordering the injured elastic cartilage in the ear there was a formation of new hyaline cartilage. […] The amount of collagen and density of inflammatory cells were reduced in the AF-16 treated animals as compared to those having had the vehicle.

[2] = test system: pulmonary hypertension; test: Crotaline (monocrotaline) induced pulmonary hypertension in rats; assay type: in vivo, Sprague-Dawley rats; settings: crotaline 60 mg/kg ip; minipump infusion; assessed 18 days later; vs untreated normal controls
Procedure: Adolescent and adult rats, with a body weight of 150-300 g and of either sex, were treated experimentally to induce pulmonary hypertension and reactive alterations in the lungs. Pulmonary hypertension (PH) is defined as having a pressure in excess of the normal pulmonary artery pressure, […], usually in the range of 30-40 mm Hg. It is a progressive disease with high morbidity and mortality in humans as well as in animals. Experimental models enable investigation of the initiating mechanisms. A single treatment of rats with monocrotaline is an established approach for the induction of PH (Cf. Mathew et al., 2004). […]
The rats were anaesthetized 18 days later, and their body weights determined. […] The pressure in the right heart ventricle was assessed with the aid of a fiber optic miniature transducer system (Samba System 3200 & Samba Preclin 420 sensor; Samba Sensors AB, V. Frolunda, Sweden), inserted through the right jugular vein. […] In contrast, rats treated with crotaline (single ip injection; 60 mg/kg body weight; crotaline dissolved in PBS) and the vehicle delivered by a Alzet pump had for 18 days an pulmonary artery pressure in excess of 30 mm Hg and a hypertrophy of the right ventricle, as assessed by comparing its wet weight to that of the left ventricle and with the weight of corresponding structures of non-treated, normal rats. […]

[3] = test system: injured skin and periost; test: Healing of calvarial skin wound and periost in rabbits; assay type: in vivo, New Zeeland albino rabbits; settings: vs vehicle
Procedure: Adult rabbits were investigated with regard to whether the administration of AF-16 affected the healing process of injured skin and periost. […] The rabbits had either AF-16 or the vehicle injected intravenously in a marginal ear vein. The dose of AF-16 was up to 5 mg per kg body weight, twice daily. The calvarial skin wound and the injection sites in the ear were investigated macroscopically after a week. Then, specimens were dissected from both areas and prepared by fixation, embedding, sectioning and staining for light microscopic examination.

[4] = test system: aquaporins; test: Effects of AF treatment on aquaporins after trauma, infections and other pathological conditions; assay type: in vivo; settings: topical or systemic administration
Description: Aquaporins are a family of proteins, integrated in membranes, and expressed in all living cells and organisms. The major function of aquaporins is to control the water flow into and out of cells, i.e. between the cytoplasm of cells and the extracellular environment. Each type of cells, tissues and organs have their specific set of aquaporins with characteristic distribution patterns. Functional aquaporins are preferentially clustered in lipid rafts and caveolae, while subunits and dissociated aquaporin complexes may be demonstrable outside these membrane constituents. […] Further, at brain and spinal cord infections, e.g. encephalitis, the patterns of distribution and intensity of these two aquaporins became altered, as disclosed be immunohistochemistry and immunochemistry. The interaction between e.g. neurons and supporting glial cells and vascular structures seems to be intricate and complex, but important.
Experiments are performed mapping in more detail regarding effects of trauma, infections and other pathological conditions. […] Effects are characterized quantitatively and qualitatively and the importance of effects on the structure and functions of the different types of aquaporins in a body. […]

Molecule | structures in the ear of non-injured rats [1] | general appearance and body weight [2] | frequency of caveolae [3] | prevalence, distribution and activity of aquaporins and ion channel complexes [4]
VCHSKTRSNPENNVGL [AF-16, VCHSKTRSNPENNVGL] | did not alter the structures in the ear |  |  | 
AF: antisecretory factor, a 41 kDa protein comprising 382 amino acids; the term also covers homologues, derivatives and fragments (protein, listed as Homo sapiens) MVLESTMVCVDNSEYMRNGDFLPTRLQAQQDAVNIVCHSKTRSNPENNVGLITLANDCEVLTTLTPDTGRILSKLHTVQPKGKITFCTGIRVAHLALKHRQGKNHKMRIIAFVGSPVEDNEKDLVKLAKRLKKEKVNVDIINFGEEEVNTEKLTAFVNTLNGKDGTGSHLVTVPPGPSLADALISSPILAGEGGAMLGLGASDFEFGVDPSADPELALALRVSMEEQRHAGGGARRAARASAAEAGIATTGTEDSDDALLKMTISQQEFGRTGLPDLSSMTEEEQIAYAMQMSLQGAEFGQAESADIDASSAMDTSEPAKEEDDYDVMQDPEFLQSVLENLPGVDPNNEAIRNAMGSLPPRPPRTARRTRRRKTRSETGGKG |  | appeared healthy and had almost the same weight and appearance as the controls | more normal | great impact in monitoring and even normalizing
